Laboratory results: patent US20200231683A1 (Bristol-Myers Squibb, published 2020)
Positions count from the first letter of the chain named. Blank lines part the entries; values can stand above or below the binder they belong to.

Experiments:
[1] = biological target: T1, human CXCR4 (C-X-C chemokine receptor 4) (human, UniProt P61073 1-352); assay: cell-based or functional assay
[2] = biological target: T1, human CXCR4 (C-X-C chemokine receptor 4); assay: displacement of 100 pM ^125I-CXCL12 from CEM cells
Description: The anti-CXCR4 antibodies were serially diluted 1:3 to yield a range of concentrations from 300 nM to 137 pM. […] An irrelevant antibody of the same isotype was used as a negative control.

[3] = biological target: T1, human CXCR4 (C-X-C chemokine receptor 4); assay: flow cytometry on CEM cells (native human CXCR4), FITC anti-human IgG secondary
Description: The antibodies were then mixed with CEM cells and allowed to bind before being detected with a FITC-conjugated anti-human IgG secondary antibody. The cells were then analyzed by fluorescence cytometry.

T1 sequence (P61073 whole entry): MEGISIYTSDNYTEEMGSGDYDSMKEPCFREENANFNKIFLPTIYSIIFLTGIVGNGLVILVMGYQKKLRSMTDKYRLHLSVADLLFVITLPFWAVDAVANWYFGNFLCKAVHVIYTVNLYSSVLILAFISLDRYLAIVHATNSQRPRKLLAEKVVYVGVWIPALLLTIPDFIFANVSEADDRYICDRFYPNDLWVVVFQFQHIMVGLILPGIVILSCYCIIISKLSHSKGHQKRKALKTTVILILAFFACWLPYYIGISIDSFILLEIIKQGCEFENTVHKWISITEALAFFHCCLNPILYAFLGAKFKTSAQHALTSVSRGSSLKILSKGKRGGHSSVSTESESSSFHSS

EC50 for inhibition of CXCL12-induced calcium flux in CEM cells [1]: 0.57 nM
EC50 [2]: 28.6 nM
EC50 [3]: 80 nM
B1: D1 human anti-CXCR4 monoclonal antibody (antibody, V domains shown)
VH: EVQLVQSGGGLVQPGGSLRLSCAAAGFTFSSYSMNWVRQAPGKGLEWVSYISSRSKTIYYADSVKGRFTISRDNARNSLYLQMNSLRDEDTAVYYCARDYGGQPPYYYYYGMDVWGQGTTVTVSS
VL: VIWVTQSPSSLSASVGDRVTITCRTSQGISSWLAWYQQKPEKAPELLIYAASSLQSGVPSRFSGSGSGTDFTLTISSLQPEDFATYYCQQYNSYPRTFGQGTKVEIK

EC50 [3]: 290 nM
B2: E2 human anti-CXCR4 monoclonal antibody (antibody, V domains shown)
VH: B1 VH with K56R, R76K, Y107H
VL: B1 VL with V1E, W3V, V4L, T25A, S31N, E45K, L46S
